Source: patent publication US20240218074A1 (AKESO BIOPHARMA, published 2024)

T1: human NT5E-Biotin (NT5E is GenbankID: NP_002517.1, position: 1-552) (human, UniProt P21589 27-552, biotin label (site not stated))
T1 construct: range 1-552; Recombinant soluble antigen made by Akeso (batch 20160505), biotinylated and captured on streptavidin; also called HNT5E-Biotin; human NT5E (1-552)-Biotin
T1 sequence (looked up): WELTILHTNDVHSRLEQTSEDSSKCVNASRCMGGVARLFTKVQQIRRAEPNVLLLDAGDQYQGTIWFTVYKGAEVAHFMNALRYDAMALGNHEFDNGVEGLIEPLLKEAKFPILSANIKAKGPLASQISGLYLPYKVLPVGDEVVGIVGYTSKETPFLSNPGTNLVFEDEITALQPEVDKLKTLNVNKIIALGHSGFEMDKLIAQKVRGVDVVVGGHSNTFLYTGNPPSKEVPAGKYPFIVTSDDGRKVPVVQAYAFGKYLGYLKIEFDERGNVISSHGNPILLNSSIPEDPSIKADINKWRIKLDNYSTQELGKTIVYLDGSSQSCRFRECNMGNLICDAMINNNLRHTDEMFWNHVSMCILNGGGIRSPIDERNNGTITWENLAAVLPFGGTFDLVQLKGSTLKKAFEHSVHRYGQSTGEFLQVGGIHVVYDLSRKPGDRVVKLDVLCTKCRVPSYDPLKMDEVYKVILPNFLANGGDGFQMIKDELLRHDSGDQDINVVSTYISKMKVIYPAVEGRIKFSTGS

T2: human CD73 expressed on cells (human PBMC CD8+ T cells and CD19+ B cells); endogenous CD73 of MDA-MB-231 and … (human, UniProt P21589 27-549)
T2 sequence (looked up): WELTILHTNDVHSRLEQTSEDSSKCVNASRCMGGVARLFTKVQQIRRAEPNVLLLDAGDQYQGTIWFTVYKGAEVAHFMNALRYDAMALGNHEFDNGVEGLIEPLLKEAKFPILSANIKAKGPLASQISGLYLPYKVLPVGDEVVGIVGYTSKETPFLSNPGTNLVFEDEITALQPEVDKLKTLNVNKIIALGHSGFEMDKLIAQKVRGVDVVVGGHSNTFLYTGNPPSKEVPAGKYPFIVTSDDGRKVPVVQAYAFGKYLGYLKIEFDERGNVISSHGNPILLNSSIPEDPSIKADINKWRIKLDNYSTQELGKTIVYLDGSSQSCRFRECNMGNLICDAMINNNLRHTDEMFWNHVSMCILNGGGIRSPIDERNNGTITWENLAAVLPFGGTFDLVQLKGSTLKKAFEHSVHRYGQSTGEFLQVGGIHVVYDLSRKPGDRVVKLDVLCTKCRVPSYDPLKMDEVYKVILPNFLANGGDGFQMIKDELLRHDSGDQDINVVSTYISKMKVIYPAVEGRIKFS


How the values were obtained:
[1] = target: T1, human NT5E-Biotin (NT5E is GenbankID: …); experiment: ELISA on streptavidin-captured human NT5E-Biotin; HRP goat anti-mouse IgG
Description: Experimental steps: After coating the microplate with streptavidin at 2 μg/mL, the microplate was incubated at 4° C. for 12 hours. After the end of incubation, the antigen-coated microplate was rinsed once using PBST, and then blocked for 2 hours using 1% BSA PBST solution as the microplate blocking buffer. After the end of blocking, the microplate was washed three times using PBST. […] The antibody serially diluted with PBST solution was added to the microplate wells. […] The microplate with the antibody to be tested was incubated at 37° C. for 30 minutes, and the microplate was washed three times using PBST after the incubation was completed. […] The microplate was immediately placed into the microplate reader, and the 450 nm optical wavelength was selected to read the OD value of each well of the microplate. Data were analyzed and processed using SoftMax Pro 6.2.1 software.
Curve fitting was performed using the antibody concentration as the abscissa and the absorbance value as the ordinate, and the binding EC₅₀ of the antibody was calculated.

[2] = target: T2, human CD73 expressed on cells (human …); experiment: cell-based or functional assay
[3] = target: T2, human CD73 expressed on cells (human …); experiment: FACS on human PBMC, binding to CD8+ T cells
Description: (§1) The experimental steps are as follows: The PBMCs were resuscitated, centrifuged at 1,200 rpm for 5 min, and the supernatant was discarded, resuspended in complete medium, counted, and incubated overnight at 37° C. The solution was centrifuged at 1,200 rpm for 5 min, cells were harvested, diluted antibody solution was added at 100 μL/well, mixed well, and incubated in a refrigerator at 4° C. for 1 hour. The solution was centrifuged at 750×g for 5 min, the supernatant was discarded, and washed 2 times with 200 μL of 1×PBS (containing 1% BSA and 0.05% NaN3). Anti-human CD3-FITC (2 μL/100 μL), anti-human CD19-PE (2 μL/100 μL) (Biolegend, article number: 302254), anti-human CD8-PerCP Cy5.5 (1 μL/100 μL), anti-human IgG Fc-AF647 (1:300) (Southern Biotech, catalog number: 9040-31) were added, and incubated at 4° C. for 30 minutes. The solution was centrifuged at 750×g for 5 min, the supernatant was discarded, washed once with 200 μL of 1×PBS (including 1% BSA and 0.05% NaN3); resuspended with 300 μL of 1×PBS (including 1% BSA and 0.05% NaN3), transferred to flow tubes, and loaded for testing.

[4] = target: T2, human CD73 expressed on cells (human …); experiment: FACS on human PBMC, binding to CD19+ B cells
Description: as §1

| EC50 [1] [nM] | Inhibition rate EC50 (nM): enzyme activity of CD73 expressed by human PBMC membrane (AMP/ATP CellTiter-Glo read-out) [2] [nM] | EC50 [3] [nM] | EC50 [4] [nM] | Binder |
| --- | --- | --- | --- | --- |
| 0.018 | – | – | – | murine anti-CD73 monoclonal antibody 19F3 (antibody, V domains shown, Mouse hybridoma antibody purified on protein A; also called murine antibody 19F3; Murine 19F3) VH: EVQLQQSGPELVKPGASMRMSCKASGYSFTGYTMNWVKQSHGKNLEWIGLINPYNAGTSYNQKFKGKATLTVDKSSSTAYMELLSLTSEDSAVYYCARSEYRYGGDYFDYWGQGTTLTVSS VL: not shown |
| – | 0.226 | 0.288 | 0.108 | control antibody CPI-006 (Mupadolimab) (antibody, human IgG1, kappa, N297Q, V domains shown, made by Akeso) VH: QVQLVQSGAEVEKPGASVKVSCKASGYTFTSYWITWVRQAPGQGLEWMGDIYPGSGNTNYNEKFKTRVTITADKSTSTAYMELSSLRSEDTAVYYCAKEGGLTTEDYALDYWGQGTLVTVSS VL: EIVLTQSPATLSLSPGERATLSCRASKNVSTSGYSYMHWYQQKPGQAPRLLIYLASNLESGIPPRFSGSGYGTDFTLTINNIESEDAAYYFCQHSRELPFTFGQGTKVEIKR |
